# US20140031283A1, “ANTICANCER FUSION PROTEIN” (ADAMED SP. Z O.O., priority 2011, published 2014)
# Several values for one entry are separate records, joined by “and”; a condition that tells them apart may be missing. Equal entries are not always repeated.
# Legend:
# Panc-1 = assay: MTT cytotoxicity test, Panc-1 (human pancreatic cancer); type: cell-based; conditions: Table 4, mean/SD part
# Excerpt: (§1) MTT assay is a colorimetric assay used to measure proliferation, viability and cytotoxicity of cells. It consists in decomposition of a yellow tetrazolium salt MTT (4,5-dimethyl-2-thiazolyl)-2,5-diphenyltetrazolium bromide) to the water-insoluble purple dye formazan by mitochondrial enzyme succinate-tetrazolium reductase 1. MTT reduction occurs only in living cells. Data analysis consists in determining IC50 concentration of the protein (in ng/ml), at which the 50% reduction in the number of cells occurs in the population treated compared to control cells. Results were analyzed using GraphPad Prism 5.0 software. The test was performed according to the literature descriptions (Cells, J E, (1998). Cell Biology, a Laboratory Handbook, second edition, Academic Press, San Diego; Yang, Y., Koh, L W, Tsai, J H., (2004); Involvement of viral and chemical factors with oral cancer in Taiwan, Jpn J Clin Oncol, 34 (4), 176-183). Cell culture medium was diluted to a defined density (10^4-10^5 cells per 100 μl). Then 100 μl of appropriately diluted cell suspension was applied to a 96-well plate in triplicates. […] After stirring, the absorbance was measured at 570 nm (reference filter 690 nm). […]
# MES-SA = assay: MTT cytotoxicity test, MES-SA (human uterine sarcoma); type: cell-based
# Excerpt: (§2) MTT assay is a colorimetric assay used to measure proliferation, viability and cytotoxicity of cells. It consists in decomposition of a yellow tetrazolium salt MTT (4,5-dimethyl-2-thiazolyl)-2,5-diphenyltetrazolium bromide) to the water-insoluble purple dye formazan by mitochondrial enzyme succinate-tetrazolium reductase 1. MTT reduction occurs only in living cells. Data analysis consists in determining IC50 concentration of the protein (in ng/ml), at which the 50% reduction in the number of cells occurs in the population treated compared to control cells. Results were analyzed using GraphPad Prism 5.0 software. The test was performed according to the literature descriptions (Cells, J E, (1998). Cell Biology, a Laboratory Handbook, second edition, Academic Press, San Diego; Yang, Y., Koh, L W, Tsai, J H., (2004); Involvement of viral and chemical factors with oral cancer in Taiwan, Jpn J Clin Oncol, 34 (4), 176-183). Cell culture medium was diluted to a defined density (10^4-10^5 cells per 100 μl). Then 100 μl of appropriately diluted cell suspension was applied to a 96-well plate in triplicates. Thus prepared cells were incubated for 24 h at 37° C. in 5% or 10% CO2, depending on the medium used, and then to the cells (in 100 μl of medium) further 100 μl of the medium containing various concentrations of tested proteins were added. In the case of combination hTRAIL114-281 and p21WAF effector protein, 100 μl of the medium containing mixture of hTRAIL114-281 and p21WAF effector protein in molar ratio 1:1 was added. After incubation of the cells with tested proteins over the period of next 72 hours, which is equivalent to 3-4 times of cell division, the medium with the test protein was added with […] of MTT working solution [5 mg/ml], and incubation was continued for 3 h at 37° C. in 5% CO2. Then the medium with MTT solution was removed, and formazan crystals were dissolved by adding 100 μl of DMSO. After stirring, the absorbance was measured at 570 nm (reference filter 690 nm).
# (§3) The results of in vitro cytotoxicity tests are summarized as IC50 values (ng/ml), which corresponds to the protein concentration at which the cytotoxic effect of fusion proteins is observed at the level of 50% with respect to control cells treated only with solvent. Each experiment represents the average value of at least two independent experiments performed in triplicates. As a criterion of lack of activity of protein preparations the IC50 limit of 2000 ng/ml was adopted.
# HepG2 = assay: MTT cytotoxicity test, HepG2 (human liver hepatoma); type: cell-based; conditions: Table 4, mean/SD part
# Excerpt: as §1
# MCF10A = assay: MTT cytotoxicity test, MCF10A (mammary epithelial cells); type: cell-based
# Excerpt: as §2, §3
# NCI-H460 = conditions: Table 4, mean/SD part
# Procedure: (§4) Data analysis consists in determining IC50 concentration of the protein (in ng/ml), at which the 50% reduction in the number of cells occurs in the population treated compared to control cells. Results were analyzed using GraphPad Prism 5.0 software. […] Cell culture medium was diluted to a defined density (10^4-10^5 cells per 100 μl). Then 100 μl of appropriately diluted cell suspension was applied to a 96-well plate in triplicates. Thus prepared cells were incubated for 24 h at 37° C. in 5% or 10% CO2, depending on the medium used, and then to the cells (in 100 μl of medium) further 100 μl of the medium containing various concentrations of tested proteins were added. […] After incubation of the cells with tested proteins over the period of next 72 hours, which is equivalent to 3-4 times of cell division, the medium with the test protein was added with 20 ml of MTT working solution [5 mg/ml], and incubation was continued for 3 h at 37° C. in 5% CO2. Then the medium with MTT solution was removed, and formazan crystals were dissolved by adding 100 μl of DMSO. After stirring, the absorbance was measured at 570 nm (reference filter 690 nm).
# A549 = assay: MTT cytotoxicity test, A549 (human lung cancer); type: cell-based
# Excerpt: as §2, §3
# SW620 = assay: MTT cytotoxicity test, SW620 (human colorectal cancer); type: cell-based; conditions: Table 4, mean/SD part
# Excerpt: as §1
# MES-SA/Dx5 = assay: MTT cytotoxicity test, MES-SA/Dx5 (multidrug-resistant human uterine sarcoma); type: cell-based
# Excerpt: as §2, §3
# Cells selected for this test included tumor cell lines that are naturally resistant to TRAIL protein (the criterion of natural resistance to TRAIL: IC50 for TRAIL protein >2000), as well as tumor cell lines sensitive to TRAIL protein and resistant to doxorubicin line MES-SA/DX5 as a cancer line resistant to conventional anticancer medicaments.
# PLC/PRF/5 = assay: MTT cytotoxicity test, PLC/PRF/5 (human liver hepatoma); type: cell-based; conditions: Table 4, mean/SD part
# Excerpt: as §1
# SK-MES-1 = assay: MTT cytotoxicity test, SK-MES-1 (human lung cancer); type: cell-based
# Excerpt: as §2, §3
# NIH: OVCAR-3 = assay: MTT cytotoxicity test, NIH: OVCAR-3 (human ovarian cancer); type: cell-based; conditions: Table 4, mean/SD part
# Excerpt: as §1
# MDA-MB-231 = assay: MTT cytotoxicity test, MDA-MB-231 (human breast cancer); type: cell-based; conditions: Table 4, mean/SD part
# Excerpt: as §1
# UM-UC-3 = assay: MTT cytotoxicity test, UM-UC-3 (human bladder cancer); type: cell-based; conditions: Table 4, mean/SD part
# Excerpt: as §1
# [1] = continuous incubation over 72 h, test MTT
# Procedure for HCT-116: as §4
HCT116 IC50 (HCT-116; [1]) [µg/mL],NCI-H460 mean (IC50) (NCI-H460) [µg/mL],"HCT116 mean (IC50) (HCT-116; Table 4, mean/SD part) [µg/mL]",Molecule,PANC-1 mean (IC50) (Panc-1) [µg/mL],MES-SA IC50 (MES-SA; [1]) [µg/mL],HepG2 mean (IC50) (HepG2) [µg/mL],"MCF10A mean (IC50) (MCF10A; Table 4, mean/SD part) [µg/mL]",MCF10A IC50 (MCF10A; [1]) [µg/mL],"A549 mean (IC50) (A549; Table 4, mean/SD part, listed as Ex. 23^a)",A549 IC50 (A549; [1]) [µg/mL],SW620 mean (IC50) (SW620) [µg/mL],MES-SA/Dx5 IC50 (MES-SA/Dx5; [1]) [µg/mL],PLC/PRF/5 mean (IC50) (PLC/PRF/5) [µg/mL],SK-MES-1 IC50 (SK-MES-1; [1]) [µg/mL],OVCAR-3 mean (IC50) (NIH: OVCAR-3) [µg/mL],"MES-SA mean (IC50) (MES-SA; Table 4, mean/SD part) [µg/mL]",MDA-MB-231 mean (IC50) (MDA-MB-231) [µg/mL],"MES-SA/Dx5 mean (IC50) (MES-SA/Dx5; Table 4, mean/SD part) [µg/mL]","SK-MES-1 mean (IC50) (SK-MES-1; Table 4, mean/SD part) [µg/mL]",UM-UC-3 mean (IC50) (UM-UC-3) [µg/mL]
0.00148,0.00711,,"Ex. 23: fusion protein: 13-amino acid inhibitor of RasGAP-Aurora B interactions with 8 arginine residues at N-terminus of TRAIL121-281, uPA and MMP sites (protein, synthesized, a fusion protein comprising: a fragment of TRAIL protein, a peptide acting as an inhibitor of interactions RasGAP - Aurora B, cleavage sites recognized by uPA and MMP, an arginine transporting domain and a cysteine stabilizing residue.) KWVVSHARLMYSFRRRRRRRRRVVRPLGLAGCRVAAHITGTRGRSNTLSSPNSKNEKALGRKINSWESSRSGHSFLSNLHLRNGELVIHEKGFYYIYSQTYFRFQEEIKENTKNDKQMVQYIYKYTSYPDPILLMKSARNSCWSKDAEYGLYSIYQGGIFELKENDRIFVSVTNEHLIDMDHEASFFGAFLVG",0.0229,0.00061,0.01049,0.005196,0.00598,0.2784 µg/mL and 0.3589 µg/mL,0.2387,0.01192,0.00013,0.006821,0.00042,,,,,,
,,0.041,"Ex. 3: fusion protein: 8-amino acid fragment of human fetoprotein at C-terminus of TRAIL121-281, MMP and uPA cleavage sites (protein, synthesized, a fusion protein comprising: a fragment of TRAIL protein, a fragment of human fetoprotein and cleavage sites recognized by uPA and MMP., fusion protein: 8-amino acid fragment of human fetoprotein at C-terminus of TRAIL121-281, MMP and uPA cleavage sites) RVAAHITGTRGRSNTLSSPNSKNEKALGRKINSWESSRSGHSFLSNLHLRNGELVIHEKGFYYIYSQTYFRFQEEIKENTKNDKQMVQYIYKYTSYPDPILLMKSARNSCWSKDAEYGLYSIYQGGIFELKENDRIFVSVTNEHLIDMDHEASFFGAFLVGPLGLAGRVVREMTPVNPG",,,,,,,,,,,,0.02751,0.03618,0.02086,0.03431,0.007755,0.0204
